From article PMC9369236, “Unravelling the Adaptation Mechanisms to High Pressure in Proteins” (International Journal of Molecular Sciences, 2022) come the findings set out here.

Series [1] has as its target Phosphomannose isomerase from Thermococcus kodakarensis, expressed from pET-16b (Thermococcus kodakarensis). As to the kind of experiment: SEC; AKTA FPLC, XK50-60 column with 1 L Superdex 75 Prep-Grade resin, calibrated with the GE Healthcare Low Molecular Weight kit; elution at double the expected MW; self-association (dimer). Background: Size exclusion chromatography separates by hydrodynamic size, large species first.

Series [2] concerns the molecule itself. The description is as above.

For “Phosphomannose isomerase from Thermococcus kodakarensis, expressed from pET-16b (enzyme)”, the stoichiometry N in series [1] stood at 2.

B1: Phosphomannose isomerase from Thermococcus barophilus, expressed from pET-16b (enzyme)
chain: MKAEIKEFIDRGTYRKAPLFEGELPEGSYAQIVEIKPKQTVPKHYHEKQYELFYIISGQAKLGIEEREYDAKPGDIFLVKPKTVHWVVNKKEEPFRLFVIKLNYFGDDSVWLE
notes: Phosphomannose isomerase (PMI) of Thermococcus barophilus, gene TERMP_00744, synthetic codon-optimized gene; Construct for neutron scattering; removal of the tag is not mentioned; also called Tba PMI; PMI
In the case of B1, the “stoichiometry N” value in series [2] is 2.

By stoichiometry N is commonly meant the number of molecules, sites or subunits per partner or assembly.
